Response (cells attached/field), response and fold less attachment than αvβ3-expressing cells data for three substances are collected here from paper PMC4895024.

Assay [1] deals with integrin αvβ3 exogenously expressed on CHO and COS-7 cells, P06756;P05106. The assay can be described thus: cell attachment assay (cells on protein-coated plate). The settings on record: read off a plot.
In assay [2] the target is integrin αvβ3 on HUVEC cells, P06756;P05106. The assay is described as above.
The target of assay [3] is integrin αIIbβ3 exogenously expressed on CHO and COS-7 cells, P08514;P05106. The assay is described as above. The settings on record: read off a plot.
For assay [4], the target named is ProAgio (D1-CD2 variant 3) (UniProt P06729). The description is as above. The settings on record: CHO cells expressing αvβ3 wild type or β3-KKQ; parent: est. 190; read off a plot; scale: cells attached/field.
The target of assay [5] is ProAgio (D1-CD2 variant 3) (not stated (human and rat D1-CD2 are named)) (UniProt P06729). The assay can be described thus: cell attachment assay; culture plates coated with ProAgio; cells cultured 35 min, washed three times, attached cells counted per view field; some runs with 5 μM Cilengitide or 40 μg/ml antibody LM609.
Sequence of ProAgio (D1-CD2 variant 3) (not stated (human and rat D1-CD2 are named)) (P06729 25-206, change not shown): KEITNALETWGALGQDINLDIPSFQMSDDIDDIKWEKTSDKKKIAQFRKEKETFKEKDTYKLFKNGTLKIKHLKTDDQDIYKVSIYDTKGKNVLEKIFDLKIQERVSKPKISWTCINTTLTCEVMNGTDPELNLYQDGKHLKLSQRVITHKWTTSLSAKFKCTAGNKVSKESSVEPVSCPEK

“D1-CD2 D99N; I102V; Q103I; E104I; E83T; T9V; W10Q; G11M; A12K”: the response (cells attached/field) turned out to be 350 in assay [1] (CHO cells expressing αvβ3 (CHOαVβ3), parent: est. 100); 280 in assay [1] (CHO cells expressing αvβ3); 310 in assay [1] (COS-7 cells expressing αvβ3 (COS7αVβ3), parent: est. 90); 350 in assay [1] (COS-7 cells expressing αvβ3); 280 in assay [2] (40 μg ml−1 antibody LM609 (bar is labelled 'Cilengitide' in the image), read off a plot); 310 in assay [2] (BSA as control, read off a plot). In addition, the response (cells attached/field) in assay [2] (IgG as control, read off a plot) turned out to be 340; in assay [2] (in the presence of 5 μM of Cilengitide, read off a plot) it was 230; in assay [2] (parent: est. 45, read off a plot) it was 290; in assay [3] (CHO cells expressing αIIbβ3) it was 50; in assay [3] (COS-7 cells expressing αIIbβ3) it was 50.

For “integrin αvβ3 exogenously expressed on CHO and COS-7 cells (from UniProt P06756;P05106) β3-KKQ”, in assay [4], the response is 44.

Take “integrin αvβ5 expressed on COS-7 cells (from UniProt P06756 31-1048; P18084 24-799) (receptor)”: the fold less attachment than αvβ3-expressing cells in assay [5] is more than 3 fold.
